# Reference: the DeepSol protein solubility set
# Experiment: soluble on expression in E. coli; label from the status in PepcDB or PDB records
row,Sequence,soluble on expression in E. coli
1,MKKEANFDEVLFSLGQEVIQVLIRRGASLEDAQDAVSQTYTTIFSILPEITSENLRPWFFRVTFNYYITMYRKKKRERTFVANSHPVQSIEKMEGQELLLLIDSLKDEEQELVLLKYYYQLSYAEIALILELSVENVRKKLYRTRQKLKKELEE,not soluble
2,MGSDKIHHHHHHMPVGRGVSVGLLPKSQSPLIGVDISSTAVKLLQLSRSGNRFRVEHYAVEPLPPNAVVEKNIVEVEAVGEAIRRAINRSGSKAKNAAAAVAGSAVITKLIPMPADLDDSDLEAQVELEATNYIPYPIEEVNLDFEVLGPMPNSPDMVQVLLAASRSENVELRQSALELGGLVAKVMDVEAFAVENAFALVASELPVAADAVVALVDIGATMTTLSVLRSGRSLYSREQVFGGKQLTDEVMRRYGLTYEEAGLAKRQGGLPESYEVEVLEPFKEATVQQISRLLQFFYAGSEFNRVDCIVLAGGCAALSRLPEMVEEQLGVTTVVANPLAQMTLGPKVQAHALALDAPALMIATGLALRSFD,not soluble
3,SCQSEKHPGPELQAAEKWLYFPQLALWRRLGQLSCMSRPALNLRSWLLTILHYLLPFRVLGPHSQVGWRPLSRVSLYKTVPTRLLSRACGRLNQVELPYWLWRPVYSLYIWTFGVNMTEAAVEDLHHYHNLSEFFWHQPIMARSSPLGR,not soluble
4,MAVEAVWESARILANSRFAVAFTGAGISAESGIPTFRGKDGLWSRFDPRDLATPEAFNRDPRLVWEWYSWRIERVLAAKPNKAHRLLARLEDSGVLKAVITQNVDGLHRRAGSRRVLELHGNVLRARCTRCGSKLEWREKPSNLPPSCPRCGGVLRPDVVWFGEPLDTSLLEEAFGLARRSDVMIIIGTSGAVDPAGLLPLAAKESGATLINVNPEPNRYSGVADIELRMRAVEFAERLSRAMGIDI,soluble
5,MGSDKIHHHHHHMIFQLKGKFQHYPWGGRYFIPHFLKLTEVVDQPYAEYWLGAHPAASATIKFGEQWLPLADVIKQAPELLGERSRQQFGDNLPYLLKILDIKQPLSIQLHPNKAQAEYGFNQENRQGIPLEDVRRIYKDRNHKPEMMIALSDFWLLHGFKSITAIQACLAKYPSTSALAKSLVEKSLAVVYAEIMHADQTQLASWLRPIIEQRRADYLADKLKLSDPDYWLLYMTDDLAADAPLDAGLMCFYLFNIVHLKKGEGIYQAANLPHAYLRGQSIELMANSDNVIRGGLTTKWVDIPALLQAVDYRPVRPQIIAAYRDDKTVDQNFYLYPTPQAKDFALQRLTIRQLVENRFVTDSASMLLVMKGSLYIDLGNTSFHLNQGDAVFISADSHVELIGENDGYAIIASLP,not soluble
6,MNLHTKTWVQRLPVPIDVAWDFFSQPGNLARITPPEMMLKAEGGNAGTAIYEGMKLNFVLYPFMMIPVRWTTEIMKVSKPDFFEDRQLSGPYEQWYHRHLFRDIEGGTEMTDIVEYALPFDLFGEVVEALIVGPRLDEVFEYRRCRVAEILGEMASETRLEHHHHHH,soluble
7,LPFDGIVTKNIVSELSDILTGARIEKIYQPEPDEIIINLRTKGQNLKLLLSANASYPRIHLTDVTKENPINPPVFCMLLRKHLSGGKITKIDFHDFERVVTIHIETIDELGDLTFKKLVVEIMGKHSNIILVNNENKIIDSIKHVDSDISRVREVMPARPYTLPPGQDKINPLELDIDLLFSKAKEQGDPRISKFFLNNIKGFSPLLCEEICHRADVDPRLPVSSLSEDTIQNLKKVLKEIISKIENSEFTPCIIWNGDDRQKAVDFHSLEIKQYNTVDFYPSISRVLDLFYTIKDTSERLAQKKADLAKILNNCIDRCNKKISIHMDTLREVAEREKFKLYGELITANIYCIPKNASKVSLLNYYSENGEYVEVPLDENLLPQENAQRYFKKYAKAKAAYIHATQQLEEARGELSYLESVLHSLENSNSFEDIDDIRQELAEQGYLPSKKKRPEKKNSKNFTPYTYKSTDGFYIYVGKNNVQNDFLTLKFASSNDIWLHTKNIPGSHVIIRKDRGEIPDSTLFQAAMLAAYHSKAKNSSHVEVDYTKVKNVKKPNGAKPGMVIYDNYKTIIVTPDENVVNNLRMENR,soluble
8,MPLCTLRQMLGEARKHKYGVGAFNVNNMEQIQGIMKAVVQLKSPVILQCSRGALKYSDMIYLKKLCEAALEKHPDIPICIHLDHGDTLESVKMAIDLGFSSVMIDASHHPFDENVRITKEVVAYAHARSVSVEAELGTLGGIEEDVQNTVQLTEPQDAKKFVELTGVDALAVAIGTSHGAYKFKSESDIRLAIDRVKTISDLTGIPLVMHGSSSVPKDVKDMINKYGGKMPDAVGVPIESIVHAIGEGVCKINVDSDSRMAMTGAIRKVFVEHPEKFDPRDYLGPGRDAITEMLIPKIKAFGSAGHAGDYKVVSLEEAKAWYK,soluble
9,MANLDDELALFESELAELEQASSNSEEPASSQTHVGYDNATISAGPTTSESSAATSSAQVIQPSLLAAPPFIPIAATIAVSPFINPALGRLPTMPPVPPSIFMPPQLRAAPIMFPPRVLGIPAPATIEGAPALYETPAVNAIPQELLRTQALQSDIDKMNFKKQTDPFKKKIKEQQAKKKFVRSGGGQVWEDPSLAEWDENDFRVFCGDLGNEVSDELLAKAFRKYPSFQKAKVVRESRTNKSKGYGFVSFRDSEDYVRAMREMDGKYVGNRPIKLRKSAWKERNIDVIKQKRKQKKELGIL,soluble
10,MELAYVDAKKEEFDTLDKNHDGKVSLAEYEEHFHEASSKNEKSRTAYFAKVFEDFDEDFNMALSREELERVLAERFLVKPRENFPKLFFKFDVDKSGGLDLTEYMKFDAEFPFDQTDPVGGGPSKSNNHHDQMHTEVPQDADAAAIAAVLAQASPTLNKSPVGVAPPQTSPGLHPVAPGLFQTAVPIKKV,soluble
11,MSLDLFSVRMRAQKNGKHVSGAERIVKKEELETAVKELLNRPKEFDFMNVKVEKVKDFEVVKFNLKISTYSFKSPEEAREFAVKKLTQEGIKEEVAKKAVEILSKGANPKGGNMRGAVLMDIETGERLEEDKERGVRTIHFDWKDRKKVTEKLLKEGYTLRTVDALALTFKNLFCGVVAELCWSDDPDYVTGYVSGKEIGYVRITPLKEKGDPLGGRVYFVSRKELSEIIECLTQKVVLIELEGHHHHHH,soluble
12,LPDGIEEVLPPEAARIEVARRQVLDLFQSWGYEFVVTPHIEYLESLLTGAGSDLDLRTFKVIDPQSGRQMGFRADITPQVARIDAHTLKREGPSRLCYAGSVLHAQPRALSSSRSPIQLGAELYGDASPSSDVEVISLMLAMLQLADVPDVHMDLGHVGIYRGLARAAGLSGEVEQQLFDALQRKAIDEVVALTANLPPELASMLRALVDLCGGREVLDAARDRLAGAPAPVLEALDDLLAIADRLAARFPQLPLYFDLGELRGYHYHTGVVFAVFVPGVGQSIAQGGRYDDIGADFGRARPATGFSTDLKTLVTLGQAEIVL,not soluble
13,MVEQTTSEPAAGSMPKISFGVKKREENKVQAPAKAVVIEVDLDSDEEREKNEMERAAKRRKVMHFEDGTVQGDIDKPKEAAVIPMVVEHDWRTQKLIEKEKAGTLTEEERAKLALVLPNGIDGENEEESGKGEKIVVEDGRGDTEDADYSAIPIESFGLAILRGCNWKDGDGIGKNPQKVALKLPNRRPPGLGLGATPKNPVGKNKNTGESSKAEEEKLEEIKVGSFIKVVDGRNKGVYGKVEGRDDDSNSLFIRTAIGGKTMKVSQIVAVAVSAKEYERDSKCLNKSEYDKEKDRLETERKKLESQPPSTSTSQSSKDYKSKSSSSKHDKNSSEYERNDKMWARTDLLVRFIDEDFKRGSLYEQKVRIVDVAGDNDVTIEDDRGNTHYNIRQSWLETVIPREIGEKLMIVAGKRSGQLAVMLDKDKRKEKVTARLVATNDVVTAYFEDVCSVKIRHEEDYE,not soluble
14,MGVSGYGHDDLGRETLDKVFAEVMGAEAAAVRVQFVSGTHAIACALFGVLRPGDEMLAVVGSPYDTLEEVIGLRGQGQGSLIEFGIKYRQLELTSQGSIDWQTLSTSITDHTRLVLIQRSCGYSWRPSLSIADIEKVVNLVKQQNPHTVCFVDNCYGEFIETQEPTHVGADLMAGSLIKNPGGTIVTAGGYVAGRADLVEAAACRLTAPGIGSYGGATFLEHHHHHH,soluble
15,MGSSHHHHHHGKTIFVIVPTNEEQVAFLEALAKQDELNFDWQNPPTEPGQPVVILIPSDMVEWFLEMLKAKGIPFTVYVEEGGSENLYFQGGGGGGMDLDAFLSKNNKKSSKKVAKKSADEAALGGFGLETVPRVSTAAAKPITVANTGGSDASAAAGTASPLPAPEKTVAAPVVAVNLNFAGTTRSAKTWDAVKASQDSKRQEEVQAAAARKAKEEAEAAERKAAAGGDDDEVQLPESSPKETKVAKFVARGHRNATGAIGGGEGGAAAAASGRFAPHTQGLSLENLPTLEETFGNARKPSQSTASQSQSQQQPMSLPSQEQNGESAPAATPQESSSTPTSATAVAGSNKYVPPSKSSSTMESSTTLPSSPMPTRGSAGGSSAAAYRPPSGSSGVYKPPSMGAYRPPNASAGEAYKPPAPSAPSSGAGAYKPPTPGGASAGAYRPPASTGEAYKPPSSGGAGVYKPPSAGNSNAGAFKPSTAAGFSADTYKPPVAGSGSSAGAYKPPSAGGSAGVYKPPSKREA,soluble
16,METASITEWTFVQEVPIPEDVANLMVPGEDAVVAFKTFRDSAIFTTKRLIVRDSQGLRGKKVEVYSLPYSSVNMWSTENAGTFDFNAEVELWTRAGKIKIKIGRDLDVRRLDMLLAQCILG,not soluble
17,MAKKTKQRRPMGFPPGPPGLPFIGNIYSLAASSELPHVYMRKQSQVYGEIFSLDLGGISTVVLNGYDVVKECLVHQSEIFADRPCLPLFMKMTKMGGLLNSRYGRGWVDHRRLAVNSFRYFGYGQKSFESKILEETKFFNDAIETYKGRPFDFKQLITNAVSNITNLIIFGERFTYEDTDFQHMIELFSENVELAASASVFLYNAFPWIGILPFGKHQQLFRNAAVVYDFLSRLIEKASVNRKPQLPQHFVDAYLDEMDQGKNDPSSTFSKENLIFSVGELIIAGTETTTNVLRWAILFMALYPNIQGQVQKEIDLIMGPNGKPSWDDKCKMPYTEAVLHEVLRFCNIVPLGIFHATSEDAVVRGYSIPKGTTVITNLYSVHFDEKYWRDPEVFHPERFLDSSGYFAKKEALVPFSLGRRHCLGEHLARMEMFLFFTALLQRFHLHFPHELVPDLKPRLGMTLQPQPYLICAERRHHHHHH,soluble
18,FPSTYLSHRQETIGQKATAIAQSLEGKDRQSIEQVLDLYSQTSDIKGTVKGEMTEDKLEVKDSLPLDTDRQTTSLFIEEREVKTQDGGTMILQFLASMDLQKEAEQ,not soluble
19,MNEMPVQPTPAPPVDAPSPDGDRDLFGWRVRADLPLPELPVWAGDGRAPDILIRVAAVSPLDDGAQVFSPRIRFIEATLCFDVPDVARYRVDGGHLVTIEAARGIAADAPEIRLFFFGTVLAVLCFRRGLIPLHASAVALDGRALLLSGESGTGKSTLAAALLARGYPLLSDDLCALDVSCPDKPMILPCTAHLKLWGDAAARLGIATDGMTPVRRHLDKFRIPVRSASDAPLGPGTIIRLKRVTRAEQVGTRPLLGAEALCYDLIHRFRLGIALGYQSTMLTALAPLVRSAPIIQLNRRDDLGALPDLADHVIRLARDERRDLEHHHHHH,not soluble
20,MGSDKIHHHHHHLTQPITDWYKSGTGSTPVLKFQFATEKLLRPSGGGPSRRGTPIREIPMNLHKLLSDREQDGRPIRVGLIGAGRYGTMYLAQANNIPGIHVVAIADINVKRAEGAFELVGWPKNQIAPDIATALRDRSTTIVANADELFDVDIDVIVEATGNPIVGVKHALRAIETKKHIIMVTVEADALAGPALARRAEAAGVVYSMAYGDQPALIMELVDWARTSGFDVVCAGKGAKFLEHYHEMNPDNVWENWEFSKELTDSGQLNPNMHTSFRDGTKASIEMAAVANGAGLVPSDTGLTFTPGDVEEIATICRPADAGGVLAHEGTVDVMSSVKRDGTWIPHNTQEGVFVVVKATNAYVSGCFTEYPWHPDPTGQYAALYRPYHYVGLELNMSIANAALRGISTGSPIGFFGDVVATAKKNLKAGEFLDGEGGYTVWGQLVSAKHSVATGALPVALAHHVELRNDVAKGGIVGWDDVIMDDSLSQALEVRRETEALVAEFALNA,not soluble
